Ends that are not written are not given here. * marks the point of attachment. Biotin = O=C1N[C@H]2[C@H](CS[C@H]2CCCCC(=O)*)N1
Target: T1, GST-EBP50 (ERM-binding phosphoprotein 50 kD) (human, UniProt O14745 1-358)
T1 sequence (looked up): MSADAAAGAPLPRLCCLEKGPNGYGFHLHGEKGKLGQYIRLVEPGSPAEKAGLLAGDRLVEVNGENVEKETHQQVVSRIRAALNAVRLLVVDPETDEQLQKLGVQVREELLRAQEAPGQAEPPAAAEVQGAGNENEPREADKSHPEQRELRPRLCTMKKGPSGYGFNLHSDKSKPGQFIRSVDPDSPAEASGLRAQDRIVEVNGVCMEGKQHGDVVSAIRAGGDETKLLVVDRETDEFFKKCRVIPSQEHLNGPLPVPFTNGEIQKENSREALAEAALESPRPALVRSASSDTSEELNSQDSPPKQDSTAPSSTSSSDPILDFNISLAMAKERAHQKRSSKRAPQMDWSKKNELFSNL
Assay: pull-down

Biotin-SGSGTEEEVQDTRL [CFTRwt peptide (COOH-terminal 10 amino acids of human CFTR)]
binding result: binds

— article PMC2156157 (The Journal of Cell Biology, 1999)
